The target of one assay is T1, HLA-A*24.
T1 construct: Monomers captured on streptavidin plates; also called peptide-receptive MHC molecules; MHC complexes
The assay can be described thus: UV peptide-exchange ELISA (anti-b2m); yield grade +++ = >50. The text has this:
(§1) Candidate peptides for T cell based therapies according to the present invention were further tested for their MHC binding capacity (affinity). The individual peptide-MHC complexes were produced by UV-ligand exchange, where a UV-sensitive peptide is cleaved upon UV-irradiation, and exchanged with the peptide of interest as analyzed. Only peptide candidates that can effectively bind and stabilize the peptide-receptive MHC molecules prevent dissociation of the MHC complexes. To determine the yield of the exchange reaction, an ELISA was performed based on the detection of the light chain (p2m) of stabilized MHC complexes. The assay was performed as generally described in Rodenko et al. (Rodenko et al., 2006)
(§2) 96 well MAXISorp plates (NUNC) were coated over night with 2 ug/ml streptavidin in PBS at room temperature, washed 4× and blocked for 1 h at 37° C. in 2% BSA containing blocking buffer. Refolded HLA-A*02:01/MLA-001 monomers served as standards, covering the range of 15-500 ng/ml. Peptide-MHC monomers of the UV-exchange reaction were diluted 100-fold in blocking buffer. Samples were incubated for 1 h at 37° C., washed four times, incubated with 2 ug/ml HRP conjugated anti-β2m for 1h at 37° C., washed again and detected with TMB solution that is stopped with […]. Absorption was measured at 450 nm. Candidate peptides that show a high exchange yield (preferably higher than 50%, most preferred higher than 75%) are generally preferred for a generation and production of antibodies or fragments thereof, and/or T cell receptors or fragments thereof, as they show sufficient avidity to the MHC molecules and prevent dissociation of the MHC complexes.
As to IWAERIMF (also called IWAERIMF) [TDRD1-001], the peptide exchange yield was 50 to 75%.
VGGNVTSNF (also called VGGNVTSNF) [CT45-004] showed a peptide exchange yield of 50 to 75%.
In the case of VGGNVTSSF (also called VGGNVTSSF) [CT45-005], the peptide exchange yield lay within 50 to 75%.
On the same count and under the same terms, the same measure for IYPDSIQEL (also called IYPDSIQEL) [LOC-019]: 50 to 75%; for RIFTARLYF (also called RIFTARLYF) [AICD-001]: 50 to 75%; for KVWSDVTPLTF (also called KVWSDVTPLTF) [MMP11-023]: 50 to 75%.
In the case of TDWSPPPVEF (also called TDWSPPPVEF) [FAM178B-001], the peptide exchange yield is 50 to 75%.
Consider YFDENIQKF (also called YFDENIQKF) [HEPHL-006], for which the peptide exchange yield was 50 to 75%.
FYIVTRPLAF (also called FYIVTRPLAF) [SUCN-002]: the peptide exchange yield is 50 to 75%.
Take LFQRVSSVSF (also called LFQRVSSVSF) [HMCN1-010]: the peptide exchange yield fell in the range of 50 to 75%.
With KDLMKAYLF (also called KDLMKAYLF) [TXNDC16-006], the peptide exchange yield is 50 to 75%.
The same measure, in the same setting: the value for RILTEFELL (also called RILTEFELL) [TRIM31-001] was 50 to 75%.
SLWREVVTF (also called SLWREVVTF) [CEP250-004] displayed a peptide exchange yield of 50 to 75%.
For NAFEAPLTF (also called NAFEAPLTF) [BRCA2-004], the peptide exchange yield lay within 50 to 75%.
In turn, RLGEFVLLF (also called RLGEFVLLF) [TGM6-001] gave a peptide exchange yield of 50 to 75%.
As for FLPALYSLL (also called FLPALYSLL) [CXCR3-001], the peptide exchange yield is 50 to 75%.
On to VYEHNHVSL (also called VYEHNHVSL) [BTBD16-006], for which the peptide exchange yield was in the range of 50 to 75%.
QYPEFSIEL (also called QYPEFSIEL) [TGM4-001] registered a peptide exchange yield of 50 to 75%.
Molecule SYVLQIVAI (also called SYVLQIVAI) [PTP-041] yielded a peptide exchange yield of 50 to 75%.
For SYQEAIQQL (also called SYQEAIQQL) [NEFH-003], the peptide exchange yield was 50 to 75%.

Another assay addresses T1, HLA-A*24. In words: UV peptide-exchange ELISA (anti-b2m); yield grade + = >10%.
Text: as §1, §2
Take ISFSDTVNVW (also called ISFSDTVNVW) [ITIH6-001]: the peptide exchange yield lay within 10 to 20%.
As for GTGKLFWVF (also called GTGKLFWVF) [BTL-003], the peptide exchange yield was 10 to 20%.
For TYFFVANKY (also called TYFFVANKY) [MMP1-011], the peptide exchange yield was 10 to 20%.
For the molecule LQIPVSPSF (also called LQIPVSPSF) [MAGEC1-004], the peptide exchange yield lay within 10 to 20%.
For the molecule MFQEMLQRL (also called MFQEMLQRL) [TRIML2-001], the peptide exchange yield is 10 to 20%.
Same read-out and setting: the value for LIFALALAAF (also called LIFALALAAF) [GAST-001] was 10 to 20%.
As for VQADAKLLF (also called VQADAKLLF) [C20-002], the peptide exchange yield lay within 10 to 20%.
KYKNPYGF (also called KYKNPYGF) [MMP20-001]: the peptide exchange yield was 10 to 20%.
Turning to QFYSTLPNTI (also called QFYSTLPNTI) [ROS-009], the peptide exchange yield is 10 to 20%.
For KQVIGIHTF (also called KQVIGIHTF) [SFMBT1-002], the peptide exchange yield was 10 to 20%.
The same measure, in the same setting: the value for KDQPQVPCVF (also called KDQPQVPCVF) [NAT1-001] was 10 to 20%.
As for FPPTPPLF (also called FPPTPPLF) [BCL11A-002], the peptide exchange yield was 10 to 20%.
Same read-out and setting: the same measure for YQVAKGMEF (also called YQVAKGMEF) [FLT3-014]: 10 to 20%; for VTPKMLISF (also called VTPKMLISF) [OR5H8P-001]: 10 to 20%; for KVVSGFYYI (also called KVVSGFYYI) [CCR8-003]: 10 to 20%.
With IVTFMNKTLGTF (also called IVTFMNKTLGTF) [ADAM29-001], the peptide exchange yield lay within 10 to 20%.
Still for that read-out and setting: the value for ATATLHLIF (also called ATATLHLIF) [PCD-007] was 10 to 20%.
MMALWSLLHL (also called MMALWSLLHL) [ZAC-001]: the peptide exchange yield was 10 to 20%.
Consider VYFVQYKIM (also called VYFVQYKIM) [IL22RA2-001], for which the peptide exchange yield is 10 to 20%.
Still for that read-out and setting: the value for IYPHGVTFSP (also called IYPHGVTFSP) [F5-004] was 10 to 20%; that for KQHAWLPLTI (also called KQHAWLPLTI) [TCL1A-003] was 10 to 20%; that for SHSDHEFLF (also called SHSDHEFLF) [ARSH-001] was 10 to 20%.
For SYIVDGKII (also called SYIVDGKII) [PSG9-001], the peptide exchange yield lay within 10 to 20%.
For the molecule RRLWAYVTI (also called RRLWAYVTI) [ITIH6-002], the peptide exchange yield lay within 10 to 20%.
On to KLRALSILF (also called KLRALSILF) [PTP-039], for which the peptide exchange yield lay in the range of 10 to 20%.
Regarding RVHANPLLI (also called RVHANPLLI) [APOB-081], the peptide exchange yield lay within 10 to 20%.
For QHAWLPLTI (also called QHAWLPLTI) [TCL1A-004], the peptide exchange yield is 10 to 20%.
